Source: paper PMC4990422, “Coupling between the DEAD-box RNA helicases Ded1p and eIF4A” (eLife, 2016)
Each block holds one compound with its values, some of them ahead of it.

Experiments:
[1] = target: Ded1p (wild type, N-terminal His6-tag) (S. cerevisiae) (UniProt P06634); test: cross-linking; formaldehyde 1% (v/v), 30 min, room temperature; Ded1p 0.3 µM, eIF4A 2 µM or as indicated, RNA 2 µM (16 bp, 25 nt 3'-overhang), 0.5 mM ADPNP-MgCl2, unwinding buffer; Western blot with α-Ded1p
Ded1p-eIF4A-eIF4G = target: T1, Ded1p-eIF4A-eIF4G (Saccharomyces cerevisiae, UniProt P06634); test: global fit of thermodynamic model to RNA unwinding data; type: biochemical; conditions: unwinding reactions, RNA 16 bp with 25 nt 3' overhang; fitted with energy-conservation constraints; RNA-bound complex; some ATP constants given only as limits
T1 construct: gene DED1; His6-Ded1p, His6-eIF4A, GST-S-tag-eIF4G1-His; eIF4G preparation contains eIF4E; with ATP-dependent RNA helicase eIF4A; Eukaryotic initiation factor 4F subunit p150; Eukaryotic translation initiation factor 4E

eIF4A (S. cerevisiae) [2] = target: T2, eIF4A (S. cerevisiae) (UniProt P10081); test: global fit of RNA unwinding time courses to a thermodynamic model; K1/2 of a binding step calculated with the model of Figure 4A; step without RNA, ATP bound to Ded1p
T2 sequence: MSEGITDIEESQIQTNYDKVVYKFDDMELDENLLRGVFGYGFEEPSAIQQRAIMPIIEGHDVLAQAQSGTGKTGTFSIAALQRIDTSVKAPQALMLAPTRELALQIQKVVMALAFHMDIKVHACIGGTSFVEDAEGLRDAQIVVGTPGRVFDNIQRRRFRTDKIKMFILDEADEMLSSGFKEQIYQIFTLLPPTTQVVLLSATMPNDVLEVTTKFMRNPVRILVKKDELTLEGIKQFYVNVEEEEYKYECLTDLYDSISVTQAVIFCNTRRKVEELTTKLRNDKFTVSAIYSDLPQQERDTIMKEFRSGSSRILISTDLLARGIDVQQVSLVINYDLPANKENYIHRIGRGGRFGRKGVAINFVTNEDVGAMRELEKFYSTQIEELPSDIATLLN

eIF4A (S. cerevisiae) [3] = target: T2, eIF4A (S. cerevisiae); test: global fit of RNA unwinding time courses to a thermodynamic model; K1/2 of a binding step calculated with the model of Figure 4A; step without RNA, ATP bound to eIF4A
eIF4A (S. cerevisiae) [4] = target: T2, eIF4A (S. cerevisiae); test: global fit of RNA unwinding time courses to a thermodynamic model; K1/2 of a binding step calculated with the model of Figure 4A; RNA bound to the target before the step, no ATP
eIF4A (S. cerevisiae) [5] = target: T2, eIF4A (S. cerevisiae); test: global fit of RNA unwinding time courses to a thermodynamic model; K1/2 of a binding step calculated with the model of Figure 4A; RNA bound to the binder before the step, no ATP
eIF4A (S. cerevisiae) [6] = target: T2, eIF4A (S. cerevisiae); test: global fit of RNA unwinding time courses to a thermodynamic model; K1/2 of a binding step calculated with the model of Figure 4A; step without RNA, ATP bound to Ded1p and to eIF4A
eIF4A (S. cerevisiae) [7] = target: T2, eIF4A (S. cerevisiae); test: global fit of RNA unwinding time courses to a thermodynamic model; K1/2 of a binding step calculated with the model of Figure 4A; RNA bound to the target before the step, ATP bound to Ded1p
eIF4A (S. cerevisiae) [8] = target: T2, eIF4A (S. cerevisiae); test: global fit of RNA unwinding time courses to a thermodynamic model; K1/2 of a binding step calculated with the model of Figure 4A; RNA bound to the binder before the step, ATP bound to Ded1p
eIF4A (S. cerevisiae) [9] = target: T2, eIF4A (S. cerevisiae); test: global fit of RNA unwinding time courses to a thermodynamic model; K1/2 of a binding step calculated with the model of Figure 4A; RNA bound to the target before the step, ATP bound to eIF4A
eIF4A (S. cerevisiae) [10] = target: T2, eIF4A (S. cerevisiae); test: global fit of RNA unwinding time courses to a thermodynamic model; K1/2 of a binding step calculated with the model of Figure 4A; RNA bound to the binder before the step, ATP bound to eIF4A
eIF4A (S. cerevisiae) [11] = target: T2, eIF4A (S. cerevisiae); test: global fit of RNA unwinding time courses to a thermodynamic model; K1/2 of a binding step calculated with the model of Figure 4A; RNA bound to the binder before the step, ATP bound to Ded1p and to eIF4A
eIF4A (S. cerevisiae) [12] = target: T2, eIF4A (S. cerevisiae); test: global fit of RNA unwinding time courses to a thermodynamic model; K1/2 of a binding step calculated with the model of Figure 4A; RNA bound to the target before the step, ATP bound to Ded1p and to eIF4A
eIF4A (S. cerevisiae) [13] = target: T2, eIF4A (S. cerevisiae); test: global fit of RNA unwinding time courses to a thermodynamic model; K1/2 of a binding step calculated with the model of Figure 4A (Kintek Global Explorer; 16 bp duplex, 25 nt 3' overhang); step without RNA and without ATP
[14] = target: eIF4G-eIF4E complex (Saccharomyces cerevisiae) (UniProt P39935); conditions: cited from earlier work
Chain of eIF4G-eIF4E complex (Saccharomyces cerevisiae) (P39935 whole entry, chain 1 of 2): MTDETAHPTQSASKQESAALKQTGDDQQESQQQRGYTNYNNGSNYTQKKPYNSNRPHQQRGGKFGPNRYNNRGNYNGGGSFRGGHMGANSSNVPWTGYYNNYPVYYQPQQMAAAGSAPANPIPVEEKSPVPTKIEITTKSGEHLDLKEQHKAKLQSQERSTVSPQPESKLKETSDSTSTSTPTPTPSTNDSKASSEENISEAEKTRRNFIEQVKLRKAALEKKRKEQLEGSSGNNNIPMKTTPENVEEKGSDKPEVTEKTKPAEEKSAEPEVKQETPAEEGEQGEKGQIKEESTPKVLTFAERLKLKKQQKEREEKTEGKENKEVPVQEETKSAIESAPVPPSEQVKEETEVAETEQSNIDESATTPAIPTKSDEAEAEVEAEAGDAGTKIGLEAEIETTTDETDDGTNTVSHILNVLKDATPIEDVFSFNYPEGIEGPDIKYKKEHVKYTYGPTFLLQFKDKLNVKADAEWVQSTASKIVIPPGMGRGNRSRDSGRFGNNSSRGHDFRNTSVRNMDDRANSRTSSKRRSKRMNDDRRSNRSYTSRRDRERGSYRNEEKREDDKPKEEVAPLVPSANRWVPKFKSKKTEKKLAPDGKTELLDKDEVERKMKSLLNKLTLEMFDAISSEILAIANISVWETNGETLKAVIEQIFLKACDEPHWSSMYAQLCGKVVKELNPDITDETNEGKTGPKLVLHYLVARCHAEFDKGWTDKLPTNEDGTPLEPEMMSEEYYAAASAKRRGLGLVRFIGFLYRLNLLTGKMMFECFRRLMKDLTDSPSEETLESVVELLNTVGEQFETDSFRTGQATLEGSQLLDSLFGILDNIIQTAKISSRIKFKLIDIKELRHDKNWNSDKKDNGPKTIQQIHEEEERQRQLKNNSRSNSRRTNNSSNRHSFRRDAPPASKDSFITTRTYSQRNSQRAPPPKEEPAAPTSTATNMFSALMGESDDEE
Chain of eIF4G-eIF4E complex (Saccharomyces cerevisiae) (P07260 whole entry, chain 2 of 2, further chain): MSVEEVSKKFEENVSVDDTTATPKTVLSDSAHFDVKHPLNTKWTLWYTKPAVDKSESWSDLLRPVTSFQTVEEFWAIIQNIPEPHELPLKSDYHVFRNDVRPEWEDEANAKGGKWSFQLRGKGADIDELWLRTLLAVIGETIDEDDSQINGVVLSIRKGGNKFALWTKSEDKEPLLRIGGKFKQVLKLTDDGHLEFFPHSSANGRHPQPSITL

Chain of Ded1p (P06634 whole entry): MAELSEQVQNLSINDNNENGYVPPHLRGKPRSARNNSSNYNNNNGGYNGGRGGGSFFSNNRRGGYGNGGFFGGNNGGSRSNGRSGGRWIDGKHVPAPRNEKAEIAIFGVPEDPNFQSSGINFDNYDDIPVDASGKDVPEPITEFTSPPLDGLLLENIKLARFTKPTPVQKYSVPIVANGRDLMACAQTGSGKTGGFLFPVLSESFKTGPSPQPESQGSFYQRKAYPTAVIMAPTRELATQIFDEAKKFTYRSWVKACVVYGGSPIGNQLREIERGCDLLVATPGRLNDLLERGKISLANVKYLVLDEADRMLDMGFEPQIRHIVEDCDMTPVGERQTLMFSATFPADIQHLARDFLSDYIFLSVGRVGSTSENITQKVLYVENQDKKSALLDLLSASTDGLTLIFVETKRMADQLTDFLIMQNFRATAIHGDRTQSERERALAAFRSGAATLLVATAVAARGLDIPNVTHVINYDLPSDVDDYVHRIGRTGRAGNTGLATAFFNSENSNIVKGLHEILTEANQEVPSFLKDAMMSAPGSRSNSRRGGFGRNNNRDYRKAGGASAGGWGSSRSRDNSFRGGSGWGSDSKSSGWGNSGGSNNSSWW
Chain of Ded1p (wild type, N-terminal His6-tag) (P06634 whole entry): as above
T1 sequence (P06634 2-604, one chain of several): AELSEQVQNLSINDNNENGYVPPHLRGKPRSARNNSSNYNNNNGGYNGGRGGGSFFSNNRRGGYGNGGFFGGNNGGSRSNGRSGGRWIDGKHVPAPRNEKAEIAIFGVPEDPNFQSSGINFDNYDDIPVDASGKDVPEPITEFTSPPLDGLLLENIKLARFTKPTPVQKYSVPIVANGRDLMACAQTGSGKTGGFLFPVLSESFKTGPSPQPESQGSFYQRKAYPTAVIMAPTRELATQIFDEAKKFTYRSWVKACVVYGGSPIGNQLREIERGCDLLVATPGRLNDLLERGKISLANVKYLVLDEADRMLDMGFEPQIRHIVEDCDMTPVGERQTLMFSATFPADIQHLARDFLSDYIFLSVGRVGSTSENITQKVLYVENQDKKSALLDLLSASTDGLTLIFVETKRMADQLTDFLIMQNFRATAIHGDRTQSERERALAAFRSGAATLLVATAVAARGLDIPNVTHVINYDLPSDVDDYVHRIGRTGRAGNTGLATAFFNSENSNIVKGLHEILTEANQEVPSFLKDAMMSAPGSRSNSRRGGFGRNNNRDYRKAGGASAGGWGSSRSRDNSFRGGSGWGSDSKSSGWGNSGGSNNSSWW
T1 sequence (P39935 whole entry partner, one chain of several): as the sequence (P39935 whole entry, chain 1 of 2) above

stoichiometry N [1]: 3
Compound: Ded1p (wild type, N-terminal His6-tag) (from UniProt P06634 1-604) (enzyme; other documents disagree on this pair)

Compound: Nc1ncnc2c1ncn2[C@@H]1O[C@H](COP(=O)(O)OP(=O)(O)OP(=O)(O)O)[C@@H](O)[C@H]1O [ATP]
K1/2 (Ded1p-eIF4A-eIF4G): ATP binding to Ded1p-eIF4G-eIF4A-RNA complex

Kd (eIF4A (S. cerevisiae) [2]): 800 nM | Kd (eIF4A (S. cerevisiae) [3]): 800 nM | Kd (eIF4A (S. cerevisiae) [4]): 45 nM | Kd (eIF4A (S. cerevisiae) [5]): 270 nM | Kd (eIF4A (S. cerevisiae) [6]): 800 nM | Kd (eIF4A (S. cerevisiae) [7]): 89 nM | Kd (eIF4A (S. cerevisiae) [8]): 710 nM | Kd (eIF4A (S. cerevisiae) [9]): 45 nM | Kd (eIF4A (S. cerevisiae) [10]): 270 nM | Kd (eIF4A (S. cerevisiae) [11]): 710 nM | Kd (eIF4A (S. cerevisiae) [12]): 89 nM | Kd (eIF4A (S. cerevisiae) [13]): 800 nM
Compound: Ded1p (from UniProt P06634 1-604) (enzyme; other documents disagree on this pair)

Compound: eIF4A (from UniProt P10081)
Kd [14]: < 30 nM
